Measured values from publication PMC5314347.

B1: ABHD5-luciferase(N) (alpha-beta hydrolase domain-containing 5, wild type) [mouse] / PLIN1-luciferase(C) (perilipin 1) [not stated] (parent)
chain 1: MKAMAAEEEVDSADAGGGSGWLTGWLPTWCPTSTSHLKEAEEKMLKCVPCTYKKEPVRISNGNRIWTLMFSHNISSKTPLVLLHGFGGGLGLWALNFEDLSTDRPVYAFDLLGFGRSSRPRFDSDAEEVENQFVESIEEWRCALRLDKMILLGHNLGGFLAAAYSLKYPSRVSHLILVEPWGFPERPDLADQERPIPVWIRALGAALTPFNPLAGLRIAGPFGLSLVQRLRPDFKRKYSSMFEDDTVTEYIYHCNVQTPSGETAFKNMTIPYGWAKRPMLQRIGGLHPDIPVSVIFGARSCIDGNSGTSIQSLRPKSYVKTIAILGAGHYVYADQPEEFNQKVKEICHTVD
chain 2: MSMNKGPTLLDGDLPEQENVLQRVLQLPVVSGTCECFQKTYNSTKEAHPLVASVCNAYEKGVQGASNLAAWSMEPVVRRLSTQFTAANELACRGLDHLEEKIPALQYPPEKIASELKGTISTRLRSARNSISVPIASTSDKVLGATLAGCELALGMAKETAEYAANTRVGRLASGGADLALGSIEKVVEFLLPPDKESAPSSGRQRTQKAPKAKPSLVRRVSTLANTLSRHTMQTTAWALKQGHSLAMWIPGVAPLSSLAQWGASAAMQVVSRRQSEVRVPWLHNLAASQDESHDDQTDTEGEETDDEEEEEESEAEENVLREVTALPNPRGLLGGVVHTVQNTLRNTISAVTWAPAAVLGTVGRILHLTPAQAVSSTKGRAMSLSDALKGVTDNVVDTVVHYVPLPRLSLMEPESEFRDIDNPSAEAERKGSGARPASPESTPRPGQPRGSLRSVRGLSAPSCPGLDDKTEASARPGFLAMPREKPARRVSDSFFRPSVMEPILGRAQYSQLRKKS
B2: ABHD5-luciferase(N) (alpha-beta hydrolase domain-containing 5, wild type) [mouse] / PLIN5-luciferase(C) (perilipin 5) [mouse] (parent)
chain 1: B1 chain 1
chain 2: MDQRGEDTTLAPHSRMSGDQTAQDPGSSLGELDQQNVVNRVVALPLVKATCTAVSSAYNSAKDRHPLLGSACRLAEHCVCSVTTCALDHAQPLLEHLQPQLATVNDLACRGLDKLEEKLPFLQQPSDMVVTSAKDTVAKSVTGMVDLAQRGRRWSGELRRSMSQAMDMVLGKSEKLVDRFLPMTEAELAVLAAEAEGPEVGTVEEQRQQQGYFVRLGSLSARLRHLAYEHSLGKLRQSKHRTQEMLAQLQETLELIQHMQRGASPSPTFHPPKTQELWGSWSPCLENGRSHSEVELETLALSRSLTLELQNAVDALAGCVRGLPPSAQAKVAEVQRSVDALQATFADAHCLGDVAPTALAEGRGSVARAHACVDEFLDLVLRAMPLPWLVGPFAPILVEQSEPLINLATCVDEVVGDPDPRWAHMDWPAQKRAWEAESADPGGQEAEPPRGQGKHTMMPELDF

Variants of: B1
Assay: luciferase protein complementation analysis, SR4995 dose-response
Details: with PLIN1-luciferase(C) (perilipin 1); SR4995 titrated from 1e-8.5 to 1e-4 M; mean ± SD; read off a plot

IC50 (log10 M (log[SR4995])) | Variant
-6.8 | chain 1 MKAMAAEEEVDSADAGGGSGWLTGWLPTWCPTSTSHLKEAEEKMLKCVPCTYKKEPVRISNGNRIWTLMFSHNISSKTPLVLLHGFGGGLGLWALNFEDLSTDRPVYAFDLLGFGRSSRPRFDSDAEEVENQFVESIEEWRCALRLDKMILLGHNLGGFLAAAYSLKYPSRVSHLILVEPWGFPERPDLADQERPIPVWIRALGAALTPFNPLAGLRIAGPFGLSLVQRLRPDFKRKYSSMFEDDTVTEYIYHCNVQTPSGETAFKNMTIPYGWAKRPMLQRIGGLHPDIPVSVIFGARSCIDGNSGTSIQSLRPKSYVKTIAILGASHYVYADQPEEFNQKVKEICHTVD [chain 1 G328S]
-6.7 | chain 1 MKAMAAEEEVDSADAGGGSGWLTGWLPTWCPTSTSHLKEAEEKMLKCVPCTYKKEPVRISNGNRIWTLMFSHNISSKTPLVLLHGFGGGLGLWALNFEDLSTDRPVYAFDLLGFGRSSRPRFDSDAEEVENQFVESIEEWRCALRLDKMILLGHNLGGFLAAAYSLKYPSRVSHLILVEPWGFPERPDLADQERPIPVWIRALGAALTPFNPLAGLRIAGPFGLSLVQRLRPDFKRKYSSMFEDDTVTEYIYHCNVQTPSGETAFKNMTIPYGWAKRPMLQRIGGLHPDIPVSVIFGANSCIDGNSGTSIQSLRPKSYVKTIAILGAGHYVYADQPEEFNQKVKEICHTVD [chain 1 R299N]

Variants of: B2
Assay: as above
Details: with PLIN5-luciferase(C) (perilipin 5) [mouse]; SR4995 titrated from 1e-8.5 to 1e-4 M; mean ± SD; read off a plot

IC50 (log10 M (log[SR4995])) | Variant
-7.2 | chain 1 MKAMAAEEEVDSADAGGGSGWLTGWLPTWCPTSTSHLKEAEEKMLKCVPCTYKKEPVRISNGNRIWTLMFSHNISSKTPLVLLHGFGGGLGLWALNFEDLSTDRPVYAFDLLGFGRSSRPRFDSDAEEVENQFVESIEEWRCALRLDKMILLGHNLGGFLAAAYSLKYPSRVSHLILVEPWGFPERPDLADQERPIPVWIRALGAALTPFNPLAGLRIAGPFGLSLVQRLRPDFKRKYSSMFEDDTVTEYIYHCNVQTPSGETAFKNMTIPYGWAKRPMLQRIGGLHPDIPVSVIFGARSCIDGNSGTSIQSLRPKSYVKTIAILGASHYVYADQPEEFNQKVKEICHTVD [chain 1 G328S]
-6.5 | chain 1 MKAMAAEEEVDSADAGGGSGWLTGWLPTWCPTSTSHLKEAEEKMLKCVPCTYKKEPVRISNGNRIWTLMFSHNISSKTPLVLLHGFGGGLGLWALNFEDLSTDRPVYAFDLLGFGRSSRPRFDSDAEEVENQFVESIEEWRCALRLDKMILLGHNLGGFLAAAYSLKYPSRVSHLILVEPWGFPERPDLADQERPIPVWIRALGAALTPFNPLAGLRIAGPFGLSLVQRLRPDFKRKYSSMFEDDTVTEYIYHCNVQTPSGETAFKNMTIPYGWAKRPMLQRIGGLHPDIPVSVIFGANSCIDGNSGTSIQSLRPKSYVKTIAILGAGHYVYADQPEEFNQKVKEICHTVD [chain 1 R299N]
